The supplement of paper PMC7877785
± gives the uncertainty stated by the source.

Assay: self-splicing fitness, log relative to wild type (ln ratio); higher = more splicing; Tetrahymena group I intron in knt gene, E. coli kanamycin selection, DiMSum; sequences stand for … in CUCUCU…GGAGGGAAAAGUUAUCAGGCAUGCACCUGGUAGCUAGUCUUUAAACCAAUAGAUUGCAUCGGUUUAAAAGGCAAGACCGUCAAAUUGCGGGAAAGGGGUCAACAGCCGUUCAGUACCAAGUCUCAGGGGAAACUUUGAGAUGGCCUUGCAAAGGGUAUGGUAAUAAGCUGACGGACAUGGUCCUAACCACGCAGCCAAGUCCUAAGUCAACAGAUCUUCUGUUGAUAUGGAUGCAGUUCACAGACUAAAUGUCGGUCGGGGAAGAUGUAUUCUUCUCAUAAGAUAUAGUCGGACCUCUCCUUAAUGGGAGCUAGCGGAUGAAGUGAUGCAACACUGGAGCCGCUGGGAACUAAUUUGUAUGCGAAAGUAUAUUGAUUAGUUUUGGAGUACUCGUGGUCG
In short: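 A randomised library covering all eight P1ex-region intron nucleotides was built with the intron in the knt kanamycin-resistance gene on pET-22b(+) and held in E. coli BL21(DE3). Cells were grown overnight at 37°C or 30°C on LB agar, with or without 25 μg/mL kanamycin, plus 100 μg/mL carbenicillin, 50 μM IPTG and 0.2% rhamnose, and pooled colonies were amplicon-sequenced on an Illumina HiSeq 2500. DiMSum fitness is the error-weighted combination of wild-type-normalised replicate fold changes, kanamycin versus none.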

Row | Sequence | self-splicing fitness (ln) (30 °C) | self-splicing fitness (ln) (37 °C)
1 | GGCAAGCAAUAUUACGUUAC | -1.39 ± 0.12 | -1.5 ± 0.14
2 | GGCCAGCAAUAUUACGAAGC | -2 ± 0.11 | 0.134 ± 0.13
3 | GGCCAGCAAUAUUACGACAU | -1.21 ± 0.013 | -0.437 ± 0.032
4 | GGCCAGCAAUAUUACGAGCU | -2.58 ± 0.4 | –
5 | GGCCAGCAAUAUUACGAUCG | -3.35 ± 0.3 | -1.27 ± 0.15
6 | GGCCAGCAAUAUUACGCAAC | -1.19 ± 0.1 | -0.97 ± 0.12
7 | GGCCAGCAAUAUUACGCAGC | -3.08 ± 0.37 | -1.88 ± 0.33
8 | GGCCAGCAAUAUUACGCAGU | -1.37 ± 0.12 | -1.86 ± 0.19
9 | GGCCAGCAAUAUUACGCCAG | -3.88 ± 0.37 | -1.59 ± 0.35
10 | GGCCAGCAAUAUUACGCCAU | -3.57 ± 0.33 | -2.12 ± 0.28
11 | GGCCAGCAAUAUUACGCGCA | -0.425 ± 0.1 | 0.666 ± 0.13
12 | GGCCAGCAAUAUUACGCGCC | -3.11 ± 0.24 | -2.05 ± 0.44
13 | GGCCAGCAAUAUUACGCUGA | -0.636 ± 0.063 | -0.331 ± 0.074
14 | GGCCAGCAAUAUUACGGAAG | -1.79 ± 0.082 | -0.69 ± 0.11
15 | GGCCAGCAAUAUUACGUAUA | -3.92 ± 0.26 | -2.23 ± 0.2
16 | GGCCAGCAAUAUUACGUCAC | -2.59 ± 0.34 | –
17 | GGCCAGCAAUAUUACGUGAC | -2.05 ± 0.09 | -1.16 ± 0.11
18 | GGCCAGCAAUAUUACGUGAU | -1.31 ± 0.075 | -0.482 ± 0.097
19 | GGCCAGCAAUAUUACGUGUU | -0.771 ± 0.055 | -0.0103 ± 0.07
20 | GGCGAGCAAUAUUACGAACA | -1.16 ± 0.16 | -0.12 ± 0.14
21 | GGCGAGCAAUAUUACGAAUG | -3.21 ± 0.18 | -2.84 ± 0.2
22 | GGCGAGCAAUAUUACGACUU | 0.166 ± 0.15 | 0.444 ± 0.14
23 | GGCGAGCAAUAUUACGAGUA | -1.9 ± 0.35 | -1.99 ± 0.22
24 | GGCGAGCAAUAUUACGCAUG | -1.32 ± 0.22 | -0.82 ± 0.23
25 | GGCGAGCAAUAUUACGCGGA | -2.3 ± 0.17 | -0.458 ± 0.13

Row | Sequence | self-splicing fitness (ln) (30 °C) | self-splicing fitness (ln) (37 °C)
26 | GGCGAGCAAUAUUACGCUAC | -1.38 ± 0.22 | 1.89 ± 0.48
27 | GGCGAGCAAUAUUACGCUAG | -3.88 ± 0.28 | -2.82 ± 0.23
28 | GGCGAGCAAUAUUACGGAAC | -1.91 ± 0.19 | -1.68 ± 0.26
29 | GGCGAGCAAUAUUACGUACG | -2.43 ± 0.18 | -1.35 ± 0.22
30 | GGCGAGCAAUAUUACGUAUA | -1.86 ± 0.14 | -1.07 ± 0.13
31 | GGCGAGCAAUAUUACGUCAG | -2.33 ± 0.31 | -3.08 ± 0.4
32 | GGCGAGCAAUAUUACGUCUC | -1.87 ± 0.23 | -1.67 ± 0.38
33 | GGCGAGCAAUAUUACGUGUC | -4.05 ± 0.21 | -1.46 ± 0.16
34 | GGCUAGCAAUAUUACGAAUU | -0.487 ± 0.19 | -0.299 ± 0.15
35 | GGCUAGCAAUAUUACGAGGC | -2.31 ± 0.24 | –
36 | GGCUAGCAAUAUUACGAGUA | -1.59 ± 0.13 | -0.404 ± 0.13
37 | GGCUAGCAAUAUUACGAUGA | -0.793 ± 0.15 | -0.54 ± 0.16
38 | GGCUAGCAAUAUUACGAUGU | -1.45 ± 0.084 | -0.785 ± 0.083
39 | GGCUAGCAAUAUUACGAUUG | -1.67 ± 0.12 | -1.47 ± 0.13
40 | GGCUAGCAAUAUUACGCAAG | -4 ± 0.46 | -0.63 ± 0.22
41 | GGCUAGCAAUAUUACGGGAG | -2.17 ± 0.14 | -1.84 ± 0.19
42 | GGCUAGCAAUAUUACGGGUU | -1.9 ± 0.096 | -0.879 ± 0.09
43 | GGCUAGCAAUAUUACGGUAU | -0.65 ± 0.061 | 0.376 ± 0.084
44 | GGCUAGCAAUAUUACGGUGG | -1.23 ± 0.096 | -0.767 ± 0.1
45 | GGCUAGCAAUAUUACGUCAC | -2.28 ± 0.16 | -1.01 ± 0.17
46 | GGCUAGCAAUAUUACGUCGG | -3.95 ± 0.29 | -2.61 ± 0.26
47 | GGCUAGCAAUAUUACGUCGU | 0.26 ± 0.075 | 0.153 ± 0.092
48 | GGCUAGCAAUAUUACGUGAU | -0.939 ± 0.099 | -0.509 ± 0.11
49 | GGCUAGCAAUAUUACGUGCU | -2.34 ± 0.24 | -1.27 ± 0.14
50 | GGCUAGCAAUAUUACGUGUC | -1.67 ± 0.18 | -1.26 ± 0.23

Row | Sequence | self-splicing fitness (ln) (30 °C) | self-splicing fitness (ln) (37 °C)
51 | GGCUAGCAAUAUUACGUUAU | -0.733 ± 0.072 | -0.394 ± 0.091
52 | GGGAAGCAAUAUUACGAAAC | -0.695 ± 0.14 | -0.469 ± 0.17
53 | GGGAAGCAAUAUUACGAACA | -1.2 ± 0.13 | -0.445 ± 0.14
54 | GGGAAGCAAUAUUACGAACG | -0.494 ± 0.086 | 0.55 ± 0.16
55 | GGGAAGCAAUAUUACGACGC | -0.0345 ± 0.14 | -0.0751 ± 0.18
56 | GGGAAGCAAUAUUACGAGCG | -1.41 ± 0.12 | -0.447 ± 0.15
57 | GGGAAGCAAUAUUACGAUGC | 0.369 ± 0.12 | 0.306 ± 0.13
58 | GGGAAGCAAUAUUACGCACA | -2.53 ± 0.26 | -0.142 ± 0.41
59 | GGGAAGCAAUAUUACGCCUU | -1.8 ± 0.17 | 0.48 ± 0.15
60 | GGGAAGCAAUAUUACGCGAA | -0.913 ± 0.14 | -0.969 ± 0.2
61 | GGGAAGCAAUAUUACGCGAG | -1.06 ± 0.33 | -1.27 ± 0.47
62 | GGGAAGCAAUAUUACGCUAG | -1.73 ± 0.18 | -1.01 ± 0.2
63 | GGGAAGCAAUAUUACGCUGG | -2.97 ± 0.23 | -1.73 ± 0.18
64 | GGGAAGCAAUAUUACGCUUA | -0.798 ± 0.12 | -0.449 ± 0.12
65 | GGGAAGCAAUAUUACGCUUG | -1.61 ± 0.21 | -0.729 ± 0.2
66 | GGGAAGCAAUAUUACGGAUG | -3.55 ± 0.21 | -1.15 ± 0.15
67 | GGGAAGCAAUAUUACGGCAA | -0.863 ± 0.14 | -1.02 ± 0.14
68 | GGGAAGCAAUAUUACGGCUG | -0.935 ± 0.13 | -0.54 ± 0.17
69 | GGGAAGCAAUAUUACGGGCG | -1.14 ± 0.13 | -0.362 ± 0.15
70 | GGGAAGCAAUAUUACGGGUA | -0.928 ± 0.2 | -2.25 ± 0.23
71 | GGGAAGCAAUAUUACGGUGC | -1.17 ± 0.17 | -0.397 ± 0.22
72 | GGGAAGCAAUAUUACGUACG | -0.982 ± 0.15 | -0.441 ± 0.18
73 | GGGAAGCAAUAUUACGUACU | -2.15 ± 0.21 | -2.2 ± 0.22
74 | GGGAAGCAAUAUUACGUAUG | -2.95 ± 0.16 | -1.11 ± 0.15
75 | GGGAAGCAAUAUUACGUCAA | -1.34 ± 0.32 | –

Row | Sequence | self-splicing fitness (ln) (30 °C) | self-splicing fitness (ln) (37 °C)
76 | GGGAAGCAAUAUUACGUCUG | 0.292 ± 0.099 | -0.174 ± 0.12
77 | GGGAAGCAAUAUUACGUUCA | 0.0857 ± 0.1 | -0.473 ± 0.14
78 | GGGAAGCAAUAUUACGUUGA | -3.37 ± 0.23 | -1.94 ± 0.18
79 | GGGAAGCAAUAUUACGUUGC | -3.92 ± 0.42 | –
80 | GGGCAGCAAUAUUACGACUU | 0.0195 ± 0.16 | -0.0822 ± 0.19
81 | GGGCAGCAAUAUUACGAUUU | -0.054 ± 0.053 | -0.281 ± 0.065
82 | GGGCAGCAAUAUUACGCCAU | -1.69 ± 0.12 | -1.21 ± 0.13
83 | GGGCAGCAAUAUUACGCGAU | -2.41 ± 0.39 | -1.8 ± 0.28
84 | GGGCAGCAAUAUUACGCUGA | -1.25 ± 0.12 | -0.998 ± 0.15
85 | GGGCAGCAAUAUUACGCUUC | – | -1.85 ± 0.17
86 | GGGCAGCAAUAUUACGGACA | -1.97 ± 0.38 | -0.246 ± 0.39
87 | GGGCAGCAAUAUUACGGACC | -0.717 ± 0.25 | 0.0103 ± 0.36
88 | GGGCAGCAAUAUUACGGAGU | -2.8 ± 0.12 | -1.78 ± 0.11
89 | GGGCAGCAAUAUUACGGCAG | -2.41 ± 0.13 | -0.994 ± 0.14
90 | GGGCAGCAAUAUUACGGCCG | -1.5 ± 0.16 | -1.59 ± 0.26
91 | GGGCAGCAAUAUUACGGGCC | -2.96 ± 0.2 | -2.66 ± 0.31
92 | GGGCAGCAAUAUUACGGUAG | -3.2 ± 0.19 | -1.34 ± 0.19
93 | GGGCAGCAAUAUUACGGUAU | -1.06 ± 0.081 | -0.373 ± 0.13
94 | GGGCAGCAAUAUUACGUACU | -0.53 ± 0.098 | -0.834 ± 0.11
95 | GGGCAGCAAUAUUACGUAGC | -1.79 ± 0.22 | -0.913 ± 0.28
96 | GGGCAGCAAUAUUACGUAGG | -2.38 ± 0.075 | -1.32 ± 0.091
97 | GGGCAGCAAUAUUACGUCAG | -1.19 ± 0.087 | -0.138 ± 0.11
